Test results from a protein production outcome set (Wang et al. 2014).

Experiment: label from the status in PepcDB records

Sequence | protein production
MEIQIVTGFLGAGKTTFLNRYLPLLSGKTVVIENEFGDIGIDGDRIQEDIPVREIFAGCICCSLAMDFRKGIKEIAENFHPDRILIEPSGVGRLTDIVKACQMAREREKVSLQITKLIAIVDMASFEEYIEGFGAFYQDQIERAGLLLLSHVEAENKAQKEIIIGRLKELNPDAILYDGDWRQLENEELLKLLEEAPDYDEDARRDAAFAALPADKVFSSVSFMDLPQMRIEDLEAIMKALEKEEYGYILRAKGWIETMEKGLVHFDFTPTVSKYREEKNPAGTGGEAVVIGCGLNQAALEMLFRRKNILEHHHHHH | not failed
MKKRAIVAVIVLLLIGLDQLVKSYIVQQIPLGEVRSWIPNFVSLTYLQNRGAAFSILQDQQLLFAVITLVVVIGAIWYLHKHMEDSFWMVLGLTLIIAGGLGNFIDRVSQGFVVDMFHLDFINFAIFNVADSYLTVGVIILLIAMLKEEINGN | failed
MMDYLITQNGGMVFAVLAMATATIFSGIGSAKGVGMTGEAAAALTTSQPEKFGQALILQLLPGTQGLYGFVIAFLIFINLGSDMSVVQGLNFLGASLPIAFTGLFSGIAQGKVAAAGIQILAKKPEHATKGIIFAAMVETYAILGFVISFLLVLNA | not failed
MVEYDLSVIILNYNAKRFLEECINSIYENTKEIKFEVILVDNKSTDNSAEFIKEKFTGKEDFTFIESKVNCGFAAGNNKAIEVSKGRAVLLLNPDTVVNGNVIGETYKCLMKDDKVGVAGCKVLNPDGTLQLACRRMIPTPKDAFYKIFGLSKIFKNNKKFTRYNLTYASADEFIDVDSVSGSYLMIKKEVIDKIGYLDETFFMYGEEMDWCLRARKAGYIVRYCPVGTIIHYKGESSKQLSHKATYEFYRAMWIFYKKNNKGNIFLDSIVWLGVKFLLFIALIKLAILPKNRVGSKG | failed
MLALVKRNCLLYFRNRSGVVFSLLGALISFILYLVFLKDNIESSWSQIDNTNQLLDTWLIGGTLAITGITTTLSNLSQWTKDKESHVRQDLLITDLGYWPLSLSYIISAALVGFIMQAIMLTIMGTYFYFTDKVTLSWTVLLQLIFIMILNTLISTIINALIVNRIQSVDNLGKLATIFGAASGFLVGTYVPIGALPDTAQTIMKLTPGAYIASLFRQTLMSDTLKDNFSQANAREHFEKMMGIRLNWQNLLTNTDTYYIVIGILVAGVLIFCLQNALRKYQALI | failed
MSSQELVTLNVGGKIFTTRFSTIKQFPASRLARMLDGRDQEFKMVGGQIFVDRDGDLFSFILDFLRTHQLLLPTEFSDYLRLQREALFYELRSLVDLLNPYLLQPRPALVEVHFLSRNTQAFFRVFGSCSKTIEMLTGRITVFTEQPSAPTWNGNFFPPQMTLLPLPPQRPSYHDLVFQCGSDSTTDNQTGVRYVSIKPDNRKLANGTNVLGLLIDTLLKEGFHLVSTRTVSSEDKTECYSFERIKSPEVLITNETPKPETIIIPEQSQIKK | failed
MANLKSLPVGDKAPEVVHMVIEVPRGSGNKYEYDPDLGAIKLDRVLPGAQFYPGDYGFIPSTLAEDGDPLDGLVLSTYPLLPGVVVEVRVVGLLLMEDEKGGDAKVIGVVAEDQRLDHIQDIGDVPEGVKQEIQHFFETYKALEAKKGKWVKVTGWRDRKAALEEVRACIARYKG | not failed
MNTMVELRKLIVFLLSFTFLLYLLYVGINISKKLRIRRSPFFLMISGVGLITLGTFLDAIDKFIDVGIKNVIAACFTFGAILFVVFIIFLSNNFVCTVSLLYEDANMDKMTGAYNRKGINEIFQRSIAKQNSFYLMLFDLDETKRLNDKYGHAVGDKYIIGASAIIKDTIGNKGFVGRIGGDEFIALLKLENEVDVEKIKKLIKDQFCESFKQYGANISIGYSRFKEDGQEFEEIFQIADKNMYDDKKSNKKNKACF | failed
MSQKIVILGSGESGVGAALLSKAKGYDTFVSDSSMITEAFIAELQQAGIAFEQGVHSEEKILSAQLIVKSPGIPEKAPIMKLIRSKAIEVISEIEFAYRHIHPGAKFIAITGSNGKTTTTLLTHHILAQLGYSVGLGGNIGTSLARQIIHEKKDVYVLELSSFQLDDMYTFKADVAVLLNITPDHLDRYEYKFENYTASKFRIFQNLTPADYYITYSEDSVIESYKKDHPVDARYVPVSLKQLYSAGAYSDEKTIQIHALDDTVVTCNTEEFPLQGKHNYINIMAALNAAVSIGADIHKSIASIKSFRNAPHRLEFVGSIYGVKFVNDSKATNVDSVWYALDSMKTPVVLIVGGVDKGNDYSQIEALVKEKVHTVVALGKDNSKVLSGFASMVSEIKEAHSMVEAIRIAHDSAKKGDTVLLSPACASFDLFKNYEDRGTQFRNLVIELAG | failed
MSIQMATSNDLEWINNQYDSIGFVRSDLKRDKVAIITYNNEYAGIGRLVQIDEDTLEMGGILILPKFRGLQLAGELVSFLVETAKKLQVQHVYCLPFEELENFYKKYGYTEVDTTKEFVHPIILEKYNWCLDHYEKHVLLFKL | failed
MVIETGVWIVLLGATVTAVATGLGALPFLFVRDIGDWWLGVFNAAAGGLMLAASHSLITEGSMLSTGRTLIGILVGLALILGANTFISRGDDHDVAELAGADARKALLILGIMTAHSFAEGVGVGVSYGGGDELGAFITAAIAVHNIPEGLAISLVLVPRGTPLWKAAGWSIFTSLPQPLMAVPAFLFVLVFEPFLPIGFGLAAGAMIWMVFAELIPDALEDVPGPTAGAAVTLAFAALFAFQHFVLHV | failed
MEPCLHPTLVDETSLVLYLDLARETGYRYVDVPFHWLEAEAERHGDAAVEAMFQRRGLVLANLGLPLNLYDSEPVFLRELSLLPDRARLCARLGARSVTAFLWPSMDEEPVRYISQLARRIRQVAVELLPLGMRVGLEYVGPHHLRHRRYPFVQSLADLKTFWEAIGAPNVGALVDSYHWYTAGEHEDDLAQLPPEKVVYVHINDTRDAPEDAHDGKRLLPGDGRIPLVPFLRGLYLAGYRGPVAAEVLHETPLDGTGESRARLVRERLEKLIALAKGEN | not failed
MHAINFIQDLAVIMLVAGVVTILFHRLRQPVVLGYIVAGFIIGPHTPPVSLIHDEDTIKILAELGVIFLMFCLGLEFSLRKLFKVGATAFIAAFLEIALMIWIGYEIGQFFGWKTMDSLFLGAILAISSTTIIVKALNDLKMKNQHFAQLIFGVLIVEDILGIGIIALLSGIAVSGSVSSGEVFSTVGKLSLFMIVALVVGILLVPRLLSYVARFDSNEMLLITVLGLCFGFCLLVVKLEYSMVLGAFLIGAIMAESRELLKIERLIEPIRDMFSAIFFVAIGLMIDPKILLEYAWPIAVITVAVVLGKMISCGLGAFIAGNDGRTSLRVGMGLSQIGEFSFIIAALGMTLQVTSDFLYPVAVAVSAITTLLTPYLIRGADPLSLKLAAIMPRRVARVFGMYGEWLRSIQPQGQSAVLAGMIRRILLQVGVNLALVMAIFFSGGYFAERLGGYMDEWVADVSHQKAWICGAALLLSLPFLIAAYRKLKALSMLLAEMGVKPEMAGRHTVRVRKVVAEVIPLLSLVVIFVMLAALSASILPANELLLVVVLVAALVAALLWRWLIRVHTRMQIALLETLGNNQESSGH | failed
MKTFHLTTQSRDEMVDITSQIETWIRETGVTNGVAIVSSLHTTAGITVNENADPDVKRDMIMRLDEVYPWHHENDRHMEGNTAAHLKTSTVGHAQTLIISEGRLVLGTWQGVYFCEFDGPRTNRKFVVKLLTD | not failed
MALSIIENGKKLESTIDFSNFLKEFKKYRLRVLLVVLAITLAAFPLINGMTPQYTATATIVLKAKTDNSTPIDQVEDFDATQAEYYPTQAELLQSKTVIEAAAKKLDLINSPIFEDEDKDENIPQSEEEHLYSIVKAIKKKLSISPVRFSQLVHVSYESKDSDMSALVANAVVESYIEQQEQRKIEKTQQAQQWNNTRMSELKEKIKQQKADIDKFLSDNGLLTYQGVDGFETEQLALVNDRLATAKEKRITAKANYNTISEALGYPLEDVATLPSISNHAQLQDLRIALIQAKRTLFDLQKMYGPKNRQILEANAQIKAIELQTTALLKELKTGLYKEYQAAIERENKYRALLAEQKKDFTALAAKKDTYNTMKADLDKTQELYEKIFLRSKEQELTVLYREPVARLLDAATPPHKPSKPNKALLLIMVCAMTIIFSLLFIIIKSALNKSINNLTQVNTRLGLQGIGELISLNYIDELALFTKNFFKNSYSAETVHAIRTTILLDDKPWPIIGLTSTESTESNELNSYLLAYSFSQDRSTLLIDLDYRKEISLTEAILMQKENEIDAKKAENSDDFETVPTSTVMGVAEALEQKHPINDCLIKIENNLTFLPRGTLTETPLITLASEELGRQLKELSKQFEQVIVNLPAMTESKDAQLIARHLSGVIYTVQAGELSANHILANIEKVKQVQTPIMGVILTDVQNDELETEEAKQQLIHQNDDILG | failed
MESKTNYTIVGLIVLILTAGLLSAGLWLSVGFNQKEYTSYTVYLKESVSGLSVESPVKFNGVQVGYVKEIKLNKNDPRQVELLLNIEKSTPITTSTSATLITQGITGVTYVGLSAGSSELTPLRKMPGEPYPVIPSKPSLLNQLDAVLKEVAENVGAVSEKAQLIFNEENADNVRKSLANLERITEIIADKGQTIDSSLNNLDVFVANMANASKQFPQLIKDLKTGISKFKSLADNMSAAGKDVSKTMIAGKNTIDQISQQAIPPAVILLRRLNAISANLEKVSNEMRQNPSVIIRGTKAPKLGPGELEHHHHHH | failed
MEERMEMISERPKESMYSWNKTAEKSDFEAVEALMSMSCSWKSDFKKYVENRPVTPVSDLSEEENLLPGTPDFHTIPAFCLTPPYSPSDFEPSQVSNLMAPAPSTVHFKSLSDTAKPHIAAPFKEEEKSPVSAPKLPKAQATSVIRHTADAQLCNHQTCPMKAASILNYQNNSFRRRTHLNVEAARKNIPCAAVSPNRSKCERNTVADVDEKASAALYDFSVPSSETVICRSQPAPVSPQQKSVLVSPPAVSAGGVPPMPVICQMVPLPANNPVVTTVVPSTPPSQPPAVCPPVVFMGTQVPKGAVMFVVPQPVVQSSKPPVVSPNGTRLSPIAPAPGFSPSAAKVTPQIDSSRIRSHICSHPGCGKTYFKSSHLKAHTRTHTGEKPFSCSWKGCERRFARSDELSRHRRTHTGEKKFACPMCDRRFMRSDHLTKHARRHLSAKKLPNWQMEVSKLNDIALPPTPAPTQ | not failed
KAPLDEIADDSFWSDETLVKYYVNDLYSEISVDGLQLQENRSDNSVSAQRDKYRASWFKFNYDMVSASDPQDDDVWEDYYVKVRKCNRFFERIGTSTIEESEKSRLTGEVHFLRAMFYFEMVKRYGGVILLDKVLTMEDNWEIPRSSEKECYDFILEDLKKATEMLPASYGSREKGRATKGAAYALKSRVELYDKRYEDVIKSCAEVYKLGYELVDGTTPEKYRSIWWTTNKDNKEIIFDVQYKSPDVYNNMMVCNMVTYINDKYGDRGWGGLGPTQELIDAFEMADGTPATQYSQAPADQVFDINTCGIYEGREPRFYANIVFHGSQIFFNADKGAVTVDRYLMDTPDKGDGSLTGYNVWKWIDYDNYNYPYAGAGSPDFSTNWIILRYAEIYLNDAEARLETGDVEGARKAVNMIRQRVGLPDLTESDPEKLRELIRKERRIEFAFEEQRFYDVRRWKIGPETQTTLHGVRFVSPTEFKVTKTDIRTWNDRLYLTPVPHDEIVRSSVLKQNLGY | not failed
MATSGTYVTEVPLKGSAKNHYKRWKSENQLFPDAIGHHIQGVTVHEGDWDSHGAIKSWNYTCDGKQEVFKEKRELDDQKMAVTFRGLDGHVMEQLKVYDVIFQFVPKSQEGCVCKVTMFWEKRYEDSPEPIKYMKFVTSLAADMDDHILKNQSKA | failed
MNTSDRIKSTQIALDRDLREQALLLLKEVRAVDGVDALSEQFVRGLAEPGLGHSHLIVTLNDKLVGLAATDEETTELAVHPAHRRQGIGKALIDAT | failed
SSSDVVTLTVGATPSPHAKILTYINDNLAADAGIKLDIVEYTDYVQPNTALNDGDLDANFYQTVPYLENAEKQFGYNFEAGEGIHLEPLGVFSNKHKSLDELPDGGTIGIISDTANQSRALELLATQGLVSIPEGDGDVNINTVTKLKNFDFREVEGPQLVRSLDDFDYAVINGNFAQEGGKTISGDALVVESPVDNPAVNVLVWKGDSKKVDAIAKLEKLLHSDEVKQYIEKTWSDGSVIPAF | not failed
